According to article PMC2063913 (The Journal of Cell Biology, 2006):
Where “and” joins values, the source holds several entries; their conditions need not be identical. Equal entries are not always repeated. Where two headings read alike, the source gives them in different places.

T1: Sfi1p fragment K246-E677 (15-repeat construct) (S. cerevisiae, UniProt Q12369 246-677)
T1 sequence (looked up): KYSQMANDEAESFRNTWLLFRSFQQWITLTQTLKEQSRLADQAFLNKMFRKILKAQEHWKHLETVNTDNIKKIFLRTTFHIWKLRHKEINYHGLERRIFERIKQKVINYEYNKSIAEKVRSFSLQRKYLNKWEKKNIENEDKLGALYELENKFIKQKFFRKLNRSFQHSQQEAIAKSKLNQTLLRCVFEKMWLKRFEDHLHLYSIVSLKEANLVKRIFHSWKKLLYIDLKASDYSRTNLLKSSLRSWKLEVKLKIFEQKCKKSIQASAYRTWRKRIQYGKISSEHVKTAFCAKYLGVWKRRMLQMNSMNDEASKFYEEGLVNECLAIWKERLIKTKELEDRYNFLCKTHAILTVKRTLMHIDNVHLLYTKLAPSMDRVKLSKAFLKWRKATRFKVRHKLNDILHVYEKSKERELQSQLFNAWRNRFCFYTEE

B1: yeast centrin (Cdc31p) (natural protein, S. cerevisiae)
chain: MSKNRSSLQSGPLNSELLEEQKQEIYEAFSLFDMNNDGFLDYHELKVAMKALGFELPKREILDLIDEYDSEGRHLMKYDDFYIVMGEKILKRDPLDEIKRAFQLFDDDHTGKISIKNLRRVAKELGETLTDEELRAMIEEFDLDGDGEINENEFIAICTDS
B2: Sfi1p fragment K643-E710 (two repeats; crystal 1 construct) (domain or fragment, S. cerevisiae, UniProt Q12369 643-710, looked up)
chain: KLNDILHVYEKSKERELQSQLFNAWRNRFCFYTEECNIQAISKRNYQLEKMVLKKFRERLLEIVKSEE
B3: Sfi1p fragment N218-H306 (three repeats; crystal 2 construct) (domain or fragment, S. cerevisiae, UniProt Q12369 218-306, looked up)
chain: NEEANRFANQAKLRVQEAVFYIWSDKTLKYSQMANDEAESFRNTWLLFRSFQQWITLTQTLKEQSRLADQAFLNKMFRKILKAQEHWKH

Assays:
[1] = target: T1, Sfi1p fragment K246-E677 (15-repeat …); experiment: native MS
yeast centrin (Cdc31p) [2] = target: B1; experiment: crystal structure
yeast centrin (Cdc31p) [3] = target: B1; experiment: crystal structure; remark: listed apart in the source

Binder: B1
stoichiometry N [1]: 15 and 14

Binder: B2
binding result (yeast centrin (Cdc31p) [2]): binds

Binder: B3
binding result (yeast centrin (Cdc31p) [3]): binds
